Source: patent US5994310A, “Peptide ligands for affinity purification of human Factor VIII” (Bayer Corporation, priority 1998, dated 1999)
Where no end group is shown, it is not given here.

Key:
human Factor VIII [1] = molecular target: T1, human Factor VIII (Homo sapiens, UniProt P00451); assay: Preparative hrFVIII purification by peptide resins, fractions assayed for Factor VIII activity (Coatest VIII:C/4); settings: load KG2DEAE 136 IU; for Elute Total IU / Flow-Through Total IU / Salt Wash Total IU: Coatest
T1 construct: (the applicant)
Procedure: Preparative batch synthesis of the preferred sequences was performed using 10 g TSK resin (Toyopearl AF-Amino-650M, TosoHaas, Inc., Montgomeryville, Pa.) as described in Buettner, J., 1996, supra. […] Three injections of an in-process sample of human Factor VIII were contacted with each resin and fractions of flow-through, salt wash and elution were tested for biological activity, protein profile by SDS-PAGE, and target protein identification by Western blot analyses, as described in Buettner, J., 1996, supra. Biological activity was defined as the ability of the column fraction to reconstitute Factor VIII-depleted plasma to thereby activate Factor X to Factor Xa, with quantitation of enzymatic activity by spectrophotometric measurement of cleaved substrate. (Coatest VIII:C/4, Chromogenix, Molndal, Sweden).
FIGS. 4, 5 and 6 show the purification chromatograms for binding of the rhFVIII to SEQ IDs 1, 2 and 3, respectively. In each figure, the bottom HPLC trace is the buffer blank injection; the three other HPLC traces are subsequent injections of the KG2DEAE sample. For each chromatogram, flow-through occurs from t=0-22 minutes; salt wash at t=26-34 minutes; elution at t=44-54 minutes. Each fraction (flow-through, salt wash and elution) was collected and assayed for Factor VIII activity by the above described Coatest assay.

human Factor VIII [2] = molecular target: T1, human Factor VIII; assay: Secondary chromatography binding assay (ELISA quantitation of column fractions); settings: rhFVIII load 10 μg on peptide-resin column; for Elute Total μg: FVIII by ELISA in elution (Buffer C) fraction; for Flow-Through Total μg: FVIII by ELISA in flow-through fraction; for Salt Wash Total μg: FVIII by ELISA in salt wash (Buffer B) fraction
Procedure: The secondary chromatography binding assays were performed upon a Michrom Bioresources HPLC (Auburn, Calif.). This binary system has the added advantage of a second injection loop which was outfitted with a 5 ml loop. This allowed addition of a third solvent during the HPLC run. Buffer A was 20 mM Imidazole, pH=7.0, 10 mM CaCl2, 300 mM NaCl, 0.01% Tween 80. Buffer B is the same as buffer A but with 1M NaCl and 1M CaCl2. Elution buffer (Buffer C) is the same as buffer A but with 40% ethylene glycol monomer and 250 mM CaCl2. Absorbance was monitored at 280 nm.
Confirmatory FVIII binding assays were performed in a column chromatographic format on the HPLC described above. Batch synthesized peptide-resin (substitution at 100 μmoles/g) was loaded and washed as described in Buettner, J., 1996, supra. The HPLC method injected the sample onto the column at 80 cm/hr linear velocity, allowed for flow-through of unbound protein, then stepped to 200 cm/hr for the wash with Buffer B (as described above), and then the bound protein eluted with Buffer C (as described above). FIGS. 1, 2 and 3 show the results from contacting a known amount of human Factor VIII to each of the preferred peptide-resins (sequence ID 1, 2 and 3, respectively).
Recombinant FVIII was applied to each column as described above. […] ELISA quantitation utilized a polyclonal antisera as capture antibody adsorbed onto the plate well, application of each fraction allowed the Factor VIII to adhere to the capture antibody. The making and using of polyclonal and monoclonal antibodies is well-know, and within the skill of one of ordinary skill in the art. See generally Antibodies, A Lab Manual, Harlow and Lane, eds., 1988, Cold Spring Harbor. Then a panel of 3 monoclonal antibodies were used to identify the Factor VIII and detection of these antibodies with a secondary-antibody enzyme conjugate allowed accurate quantitation of the Factor VIII. The flow-through fractions from each injection show greater than 96% target protein depletion by these peptide ligands. […] The binding avidity was weak enough to permit recovery of target protein during the elution phase of the chromatography.

T1 sequence (P00451 20-2351): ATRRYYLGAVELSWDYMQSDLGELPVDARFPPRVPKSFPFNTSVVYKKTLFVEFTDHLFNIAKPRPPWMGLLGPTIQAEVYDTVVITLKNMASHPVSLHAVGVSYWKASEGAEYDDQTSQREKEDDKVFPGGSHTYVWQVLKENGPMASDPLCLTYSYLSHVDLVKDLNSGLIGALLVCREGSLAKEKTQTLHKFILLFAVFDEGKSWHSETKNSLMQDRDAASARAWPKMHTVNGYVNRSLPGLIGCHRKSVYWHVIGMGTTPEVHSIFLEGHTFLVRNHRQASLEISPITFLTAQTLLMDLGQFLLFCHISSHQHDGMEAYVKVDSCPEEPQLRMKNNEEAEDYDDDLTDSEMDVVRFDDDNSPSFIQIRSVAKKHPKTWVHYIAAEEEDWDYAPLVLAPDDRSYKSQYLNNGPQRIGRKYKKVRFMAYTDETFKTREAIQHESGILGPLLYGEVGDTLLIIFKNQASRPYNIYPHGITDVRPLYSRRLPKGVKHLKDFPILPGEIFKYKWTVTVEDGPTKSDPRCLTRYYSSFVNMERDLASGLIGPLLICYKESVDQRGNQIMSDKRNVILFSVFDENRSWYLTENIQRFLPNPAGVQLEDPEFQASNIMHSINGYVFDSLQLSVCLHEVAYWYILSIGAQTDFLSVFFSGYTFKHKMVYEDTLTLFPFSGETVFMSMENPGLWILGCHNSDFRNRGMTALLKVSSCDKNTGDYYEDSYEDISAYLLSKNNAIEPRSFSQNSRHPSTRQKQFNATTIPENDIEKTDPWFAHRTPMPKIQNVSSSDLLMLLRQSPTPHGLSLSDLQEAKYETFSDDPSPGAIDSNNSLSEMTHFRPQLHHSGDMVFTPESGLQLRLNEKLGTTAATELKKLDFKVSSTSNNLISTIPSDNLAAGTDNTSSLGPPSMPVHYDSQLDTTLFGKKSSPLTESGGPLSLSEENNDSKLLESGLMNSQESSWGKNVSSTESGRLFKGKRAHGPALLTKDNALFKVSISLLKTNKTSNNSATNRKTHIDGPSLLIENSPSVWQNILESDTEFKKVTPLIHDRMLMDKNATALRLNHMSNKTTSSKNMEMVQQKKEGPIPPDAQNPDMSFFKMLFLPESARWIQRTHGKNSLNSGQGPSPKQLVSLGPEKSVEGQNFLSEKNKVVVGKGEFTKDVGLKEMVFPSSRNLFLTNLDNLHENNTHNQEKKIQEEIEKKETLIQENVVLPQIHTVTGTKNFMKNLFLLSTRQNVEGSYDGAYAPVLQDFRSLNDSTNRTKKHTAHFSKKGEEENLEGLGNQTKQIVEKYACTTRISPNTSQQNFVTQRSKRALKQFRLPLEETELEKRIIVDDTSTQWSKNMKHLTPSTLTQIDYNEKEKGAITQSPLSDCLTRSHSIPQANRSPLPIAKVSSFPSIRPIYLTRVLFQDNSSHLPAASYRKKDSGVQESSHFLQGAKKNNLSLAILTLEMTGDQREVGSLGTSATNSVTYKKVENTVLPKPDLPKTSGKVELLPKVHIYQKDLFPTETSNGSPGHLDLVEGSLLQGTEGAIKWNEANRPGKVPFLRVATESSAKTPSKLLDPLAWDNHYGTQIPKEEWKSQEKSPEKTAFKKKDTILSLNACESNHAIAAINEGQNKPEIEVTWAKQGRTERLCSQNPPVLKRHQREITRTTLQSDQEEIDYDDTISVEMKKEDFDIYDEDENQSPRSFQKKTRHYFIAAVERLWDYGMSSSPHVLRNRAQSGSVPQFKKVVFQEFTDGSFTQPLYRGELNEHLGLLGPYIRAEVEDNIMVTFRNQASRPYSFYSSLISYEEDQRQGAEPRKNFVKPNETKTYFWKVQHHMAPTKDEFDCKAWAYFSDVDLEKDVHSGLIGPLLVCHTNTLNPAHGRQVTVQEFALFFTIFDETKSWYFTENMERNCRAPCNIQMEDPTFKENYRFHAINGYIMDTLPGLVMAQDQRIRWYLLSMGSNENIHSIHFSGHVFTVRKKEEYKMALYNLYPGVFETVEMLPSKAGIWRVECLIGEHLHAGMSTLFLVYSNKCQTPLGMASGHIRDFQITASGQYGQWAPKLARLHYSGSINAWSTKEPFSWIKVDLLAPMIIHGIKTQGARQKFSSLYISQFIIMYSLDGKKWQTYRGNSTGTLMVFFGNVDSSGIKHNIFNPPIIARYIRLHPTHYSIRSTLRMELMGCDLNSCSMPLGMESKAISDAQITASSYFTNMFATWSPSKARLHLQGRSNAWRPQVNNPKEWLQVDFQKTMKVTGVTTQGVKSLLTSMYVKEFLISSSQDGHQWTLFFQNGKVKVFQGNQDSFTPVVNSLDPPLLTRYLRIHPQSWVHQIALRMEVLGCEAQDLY

Substance	Elute % Recovery (human Factor VIII [1]; inj 2) [%]	Purification (human Factor VIII [1]; inj 2)	Elute Total IU (human Factor VIII [1]; inj 2) [IU]	Flow-Through Total IU (human Factor VIII [1]; inj 2) [IU]	Salt Wash Total IU (human Factor VIII [1]; inj 2) [IU]	Elute % Recovery (human Factor VIII [1]; inj 3) [%]	Purification (human Factor VIII [1]; inj 3)	Elute Total IU (human Factor VIII [1]; inj 3) [IU]	Flow-Through Total IU (human Factor VIII [1]; inj 3) [IU]	Salt Wash Total IU (human Factor VIII [1]; inj 3) [IU]	Elute % Recovery (human Factor VIII [1]; inj 4) [%]	Purification (human Factor VIII [1]; inj 4)	Elute Total IU (human Factor VIII [1]; inj 4) [IU]	Flow-Through Total IU (human Factor VIII [1]; inj 4) [IU]	Salt Wash Total IU (human Factor VIII [1]; inj 4) [IU]	Elute Total μg (human Factor VIII [2]) [µg]	Flow-Through Total μg (human Factor VIII [2]) [µg]	Salt Wash Total μg (human Factor VIII [2]) [µg]
His-Gln-Tyr-Gly-Tyr-His (HQYGYH; not fully specified; printed as His-Gln-Tyr-Gly-Tyr-His)	46	1.00	62	2	3	52	1.53	71	1	3	55	1.47	75	1	3	10.31	0.00	0.85
His-Ile-Gln-His-Tyr-His (HIQHYH; not fully specified; printed as His-Ile-Gln-His-Tyr-His)	31	1.22	42	1	4	38	1.54	52	1	7	33	1.48	45	1	9	7.26	0.00	0.74
Trp-His-Tyr-Tyr-His-Gly (WHYYHG; not fully specified; printed as Trp-His-Tyr-Tyr-His-Gly)	26	1.15	35	5	2	41	1.75	56	2	2	40	1.64	54	6	5	5.31	0.03	0.14
